The text below walks through data of patent US20080187528A1 (FUNCTIONAL GENETICS, published 2008).

The assay has as its target T1, Ebola VP40 (1-326) (Ebola virus (EBOV), UniProt Q05128 1-326).
T1 sequence: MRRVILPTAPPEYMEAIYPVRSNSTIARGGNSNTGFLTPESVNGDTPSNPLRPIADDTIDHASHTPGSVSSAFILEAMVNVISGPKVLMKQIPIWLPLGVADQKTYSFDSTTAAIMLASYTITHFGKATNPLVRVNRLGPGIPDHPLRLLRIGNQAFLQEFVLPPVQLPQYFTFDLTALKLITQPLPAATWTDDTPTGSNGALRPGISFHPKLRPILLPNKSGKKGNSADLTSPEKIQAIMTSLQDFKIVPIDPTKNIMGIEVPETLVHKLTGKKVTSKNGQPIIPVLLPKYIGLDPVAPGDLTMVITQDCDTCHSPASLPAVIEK
Kind of assay: co-immunoprecipitation with anti-Myc antibody from 293T lysates.

B1: TSG101 1-140 truncated mutant, C-terminally tagged with a Myc epitope (other)
chain: MAVSESQLKKMVSKYKYRDLTVRETVNVITLYKDLKPVLDSYVFNDGSSRELMNLTGTIPVPYRGNTYNIPICLWLLDTYPYNPPICFVKPTSSMTIKTGKHVDANGKIYLPYLHEWKHPQSDLLGLIQVMIVVFGDEPP
notes: Expressed in 293T cells
As for B1, the binding result is listed as “no binding”.
